Measured values taken from PMC9652086.

Molecular target: h4#147D, humanized IgG4-formatted anti-CD147 antibody (IgG4Pro, heavy chain S228P) (human)
Assay: SPR; Biacore T200; purified h4#147D captured on the sensor chip with a human antibody capture kit, recombinant human or monkey CD147 injected; 1:1 fitting model

h4#147D, humanized IgG4-formatted anti-CD147 antibody (IgG4Pro, heavy chain S228P) (human), sequence (heavy, as listed by the source, chain 1 of 2): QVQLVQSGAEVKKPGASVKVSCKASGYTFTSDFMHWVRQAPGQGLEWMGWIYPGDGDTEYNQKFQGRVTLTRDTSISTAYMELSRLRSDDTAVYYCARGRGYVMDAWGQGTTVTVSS
h4#147D, humanized IgG4-formatted anti-CD147 antibody (IgG4Pro, heavy chain S228P) (human), sequence (light, as listed by the source, chain 2 of 2): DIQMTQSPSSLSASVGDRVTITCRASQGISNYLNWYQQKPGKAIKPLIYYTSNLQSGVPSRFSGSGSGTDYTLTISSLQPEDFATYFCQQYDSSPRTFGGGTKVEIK

Kd: 5.8 nM
Substance: recombinant monkey CD147 protein (natural protein)
